From patent US11161908 (CITY OF HOPE, dated 2021)
Substitutions are numbered along the chain they refer to.

B1: humanized C90 variant HC1 + LC3 (antibody, V domains shown)
VH: QVQLQESGPGLVKPSQTLSLTCTVSGDSITSGYWNWIRQHPGKGLEYIGYISYSGSTYYNPSLKSRVTISRDTSKNQFSLKLSSVTAADTAVYYCASPNYPFYAMDYWGQGTLVTVSS
VL: DIVMTQSPSSLSASVGDRVTITCRASESVDNYGISFMNWFQQKPGKAPKLLIYAASNLGSGVPSRFSGSGSGTDFTLTISSLQPEDFATYYCQQSKEVPWTFGQGTKVEIKR
notes: also called Humanized HC1 + LC3; Hu90 HC-1 with Hu90 LC-3
B2: humanized C90 variant HC3 + LC3 (antibody, V domains shown)
VH: B1 VH with Q1E, Q16E, T23S, H40P, F78Y, K81R, V92L, L113R
VL: B1 VL
notes: also called Humanized HC3 + LC3; Hu90 HC-3 with Hu90 LC-3
B3: humanized C90 variant HC2 + LC1 (antibody, V domains shown)
VH: B1 VH with Q1E, F78Y
VL: EIVLTQSPATLSLSPGERATLSCRASESVDNYGISFLNWFQQKPGQAPRLLIYAASNRATGIPARFSGSGSGTDFTLTISSLEPEDFAVYYCQQSKEVPWTFGGGTKVEIKR
notes: also called Humanized HC2 + LC1; Hu90 HC-2 with Hu90 LC-1
B4: humanized C90 variant HC1 + LC1 (antibody, V domains shown)
VH: B1 VH
VL: B3 VL
notes: also called Humanized HC1 + LC1; Hu90 HC-1 with Hu90 LC-1
B5: humanized C90 variant HC1 + LC2 (antibody, V domains shown)
VH: B1 VH
VL: B3 VL with E1D, L37M
notes: also called Humanized HC1 + LC2; Hu90 HC-1 with Hu90 LC-2
B6: humanized C90 variant HC2 + LC2 (antibody, V domains shown)
VH: B1 VH with Q1E, F78Y
VL: B3 VL with E1D, L37M
notes: also called Hu90 HC-2 with Hu90 LC-2
B7: humanized C90 variant HC3 + LC1 (antibody, V domains shown)
VH: B1 VH with Q1E, Q16E, T23S, H40P, F78Y, K81R, V92L, L113R
VL: B3 VL
notes: also called Humanized HC3 + LC1; Hu90 HC-3 with Hu90 LC-1
B8: humanized C90 variant HC3 + LC2 (antibody, V domains shown)
VH: B1 VH with Q1E, Q16E, T23S, H40P, F78Y, K81R, V92L, L113R
VL: B3 VL with E1D, L37M
notes: also called Humanized HC3 + LC2; Hu90 HC-3 with Hu90 LC-2
B9: chimeric anti-human BAFF-R antibody C90 (Clone 90 variable regions, human IgG1 constant regions) (antibody, V domains shown)
VH: EVQLQESGPSLVKPSQTLSLTCSVTGDSITSGYWNWIRKFPGNKLEYMGYISYSGSTYYNPSLKSRISITRDTSKNQYYLQLNSVTPEDTATYYCASPNYPFYAMDYWGQGTSVTVSS
VL: not shown
notes: also called chimeric C90; Chi90
B10: mouse monoclonal antibody from hybridoma Clone 55 (antibody, V domains shown)
VH: QVTLKESGPGILKPSQTLSLTCSFSGFSLSTSGMGVGWIRQPSGKGLEWLAHIWWDDDKYYNSSLKSHLTISKDTSRNQVFLKITSVDTADTATYYCARSFGYGLDYWGQGTTLTVSS
VL: DIQMTQTTSSLSASLGDRVTISCSASQDISNYLNWYQQKPDGTVKLLIYYTSSLHSGVPSRFSGSGSGTDYSLTISSLEPEDIATYYCHQFSELPWTFGGGTKLEIK
notes: also called mouse mAb C55
B11: chimeric anti-human BAFF-R antibody C55 (Clone 55 variable regions, human IgG1 constant regions) (antibody, V domains shown)
VH: B10 VH
VL: B10 VL
modifications: Conjugated to Alexa Fluor 488 in FIG. 1D (sites not given)
notes: also called chimeric C55; Chi55

Biological target: T1, commercial, recombinant extracellular domain of human BAFF-R (human, UniProt Q96RJ3 1-78)
T1 construct: extracellular domain
Test: Biacore analysis; antibody as loading sample, recombinant human BAFF-R ECD as sample
Description: The chimeric anti-BAFF-R antibody C90 was humanized with several variants. The humanization process took into consideration and analysis of the variable region and specifically the CDRs of the chimeric antibody. From there, three variants for each heavy and light chain was developed with varying degrees of human-likeness ranging from 1 the most human to 3 the most conservative to the chimeric. The variants were combined to produce 9 variants. Biacore analysis was performed on each variant as well as the chimeric parental C90 to determine their equilibrium dissociation constant K_D. The antigen was commercial, recombinant extracellular domain of human BAFF-R.

| Binder | Kd [nM] | koff [s⁻¹] | kon [M⁻¹ s⁻¹] |
| --- | --- | --- | --- |
| B1 | 5 | 0.0021 | 410000 |
| B2 | 3.4 | 0.0023 | 680000 |
| B3 | 2.6 | 0.002 | 770000 |
| B4 | 4 | 0.0024 | 610000 |
| B5 | 3.7 | 0.0023 | 620000 |
| B6 | 3.6 | 0.0022 | 610000 |
| B7 | 3.8 | 0.0031 | 820000 |
| B8 | 3.1 | 0.0037 | 1.2e+06 |
| B9 | – | 0.002 | 990000 |

Biological target: T2, human BAFF-R, endogenous, on human B-cell lines, primary lymphoma cells and normal B cells (human, UniProt Q96RJ3 1-184)
T2 construct: whole, on cells; also called BAFF-R-positive human MCL lines (Mino, JeKo-1, REC-1, JVM-13, Z-138); NHL lines JeKo-1, SU-DHL-6, Raji, RL
Test: flow cytometry, hybridoma supernatant at 1/10, 1/50 and 1/200 with anti-mouse IgG-APC on Mino; 293T as negative control
From the text: Figure 8: FIG. 8 are flow cytometry results showing verification that selected hybridoma clones bind MCL cells. Binding of hybridoma Clone 53, 55, 67, and 90 supernatants (1/10, 1/50, and 1/200 dilutions) to Mino (mantle cell lymphoma) and 293T (negative control) cell lines assessed by flow cytometry performed with anti-mouse IgG-APC.

| Binder | binding result |
| --- | --- |
| B10 | binds |

Biological target: T2, human BAFF-R, endogenous, on human …
Test: flow cytometry, Alexa Fluor 488-conjugated chimeric antibody on primary NHL patient samples

| Binder | binding result |
| --- | --- |
| B11 | binds |
